Here are results for 5 molecules from patent US20250313626A1 (HARBOUR BIOMED SHANGHAI, published 2025).

Read-outs that look alike come from different tables or passages of the source.

B5: Fc-tagged human CD200 protein (Fc fusion)
chain: QVQVVTQDEREQLYTPASLKCSLQNAQEALIVTWQKKKAVSPENMVTFSENHGVVIQPAYKDKINITQLGLQNSTITFWNITLEDEGCYMCLFNTFGFGKISGTACLTVYVQPIVSLHYKFSEDHLNITCSATARPAPMVFWKVPRSGIENSTVTLSHPNGTTSVTSILHIKDPKNQVGKEVICQVLHLGTVTDFKQTVNKG
notes: also called hCD200; not shown: Fc tag

Assay [1] concerns the target T1, CD200R1a on PathHunter Jurkat CD200R1a signaling cells (Eurofins DiscoverX, 93-1136C19) (human, UniProt Q8TD46 25-348).
T1 sequence: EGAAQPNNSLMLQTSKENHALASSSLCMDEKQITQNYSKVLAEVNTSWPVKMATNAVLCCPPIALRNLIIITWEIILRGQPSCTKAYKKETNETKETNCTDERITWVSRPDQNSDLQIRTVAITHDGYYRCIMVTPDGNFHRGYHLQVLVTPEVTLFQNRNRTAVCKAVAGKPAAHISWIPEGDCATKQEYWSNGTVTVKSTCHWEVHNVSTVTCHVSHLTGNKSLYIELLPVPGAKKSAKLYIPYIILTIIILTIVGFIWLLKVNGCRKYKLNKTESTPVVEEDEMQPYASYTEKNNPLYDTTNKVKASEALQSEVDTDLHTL
Kind of assay: cell-based or functional assay.

In assay [2] the target is T2, human CD200R1 isoform a on CHOK1 cells (CHOK1/hCD200R1a) (human, UniProt Q8TD46 25-348).
T2 construct: also called CHOK1/CD200R1a
T2 sequence: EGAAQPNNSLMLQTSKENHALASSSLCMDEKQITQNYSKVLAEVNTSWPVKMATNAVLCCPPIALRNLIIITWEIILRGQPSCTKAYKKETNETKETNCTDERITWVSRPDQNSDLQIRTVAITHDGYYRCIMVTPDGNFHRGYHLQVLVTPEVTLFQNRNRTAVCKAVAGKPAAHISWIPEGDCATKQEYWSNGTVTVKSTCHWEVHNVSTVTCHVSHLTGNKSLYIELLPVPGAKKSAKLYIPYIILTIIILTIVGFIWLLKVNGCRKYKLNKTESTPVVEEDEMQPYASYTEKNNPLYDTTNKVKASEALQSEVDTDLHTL
As to the kind of experiment: flow cytometry blocking assay: antibody titrated against biotin-labelled human CD200 binding to CHOK1/hCD200R1a cells; head prints EC50 without unit, x axis Log [Ab] (nM), y axis Inhibition %. On the procedure:
(§1) In brief, CHOK1/hCD200R1a cells were digested and resuspended in 2% BSA in PBS. […] The cells were placed at 4° C. and incubated for 1 hour in the dark. […] 100 μL/well of pre-cooled PBS containing 2% BSA was added to rinse the cells twice, centrifugation was performed at 500 g, 4° C. for 5 minutes, and the supernatant was discarded. Fluorescent secondary antibody (PE Streptavidin, BD, Cat #: 554061, 1:200) was added at 100 μL/well, and incubation was performed at 4° C. for 30 minutes in the dark. The cells were washed twice with 200 μL/well of pre-cooled PBS, and were centrifuged at 500 g, 4° C. for 5 minutes, and the supernatant was discarded. Finally, 200 μL/well of pre-cooled PBS was used to resuspend the cells, and the fluorescence signal values were read using ACEA Novocyte 3000 flow cytometer. IC50 values were calculated.
(In general: A flow cytometer gives signals particle by particle.)

The target in assay [3] is T2, human CD200R1 isoform a on CHOK1 cells …. As to the kind of experiment: flow cytometry, CHOK1/hCD200R1a cells (FITC-Mean); table beside the curves. As to the method:
(§2) This example is intended to investigate the in vitro binding activity of human anti-CD200R1 monoclonal antibodies to human/Cynomolgus macaques CD200R1a expressed on the surface of cells. The anti-CD200R1 antibodies were produced as described in Example 3.4 and the binding experiments at the cell level were performed using CHOK1/hCD200R1a and CHOK1-cynoCD200R1a.
(§3) Briefly, CHOK1/hCD200R1a cells and CHOK1-cynoCD200R1a cells were digested, and collected, and then were resuspended in PBS containing 2% BSA, respectively. The cell density was adjusted to 1×10⁶ cells/mL. The cells were seeded in a 96-well V-bottom plate (Corning, #3894) at 100 μL/well, followed by the addition of test antibodies and reference antibodies in a series diluted concentration, each at 100 μL/well. The cells were incubated away from light at 4° C. for 1 h. Thereafter, the cells in each well were rinsed twice with 100 μL of pre-cooled PBS containing 2% BSA, and centrifuged at 500 g at 4° C. for 5 min, and then the supernatant was discarded. 100 μL of fluorescent secondary antibody (Alexa Fluor 488-conjugated AffiniPure Goat Anti-Human IgG, Fcγ Fragment Specific, Jackson, #109-545-098, diluted in a 1:1000 ratio) was added in each well, and the plate was incubated away from light at 4° C. for 1 h. The cells in each well were rinsed twice with 100 μL of pre-cooled PBS containing 2% BSA, and centrifuged at 500 g at 4° C. for 5 min, and then the supernatant was discarded. Finally, the cells in each well were resuspended in 200 μL of pre-cooled PBS containing 2% BSA, and the fluorescence signal values were read using a BD CantoII flow cytometer.

The target is the same in assay [4]. Kind of assay: flow cytometry, CHOK1/hCD200R1a cells (FITC-Mean); table beside the curves, head without unit, x axis Log [Ab] (nM).
Assay [5] concerns the target T3, Cynomolgus macaques CD200R1 isoform a on CHOK1 cells (CHOK1/cynoCD200R1a) (Cynomolgus macaques).
T3 chain: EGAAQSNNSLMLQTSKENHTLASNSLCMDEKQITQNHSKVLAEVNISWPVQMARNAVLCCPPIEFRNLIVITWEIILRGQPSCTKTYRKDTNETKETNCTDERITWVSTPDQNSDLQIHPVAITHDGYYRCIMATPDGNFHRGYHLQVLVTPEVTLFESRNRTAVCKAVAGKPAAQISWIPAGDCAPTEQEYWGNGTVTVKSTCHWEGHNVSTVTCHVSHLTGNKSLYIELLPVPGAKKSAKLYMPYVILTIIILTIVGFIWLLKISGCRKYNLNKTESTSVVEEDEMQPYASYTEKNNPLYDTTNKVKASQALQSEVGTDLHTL
As to the kind of experiment: flow cytometry, CHOK1/cynoCD200R1a cells (APC-A Mean); table beside the curves.

Assay [6] concerns the target T2, human CD200R1 isoform a on CHOK1 cells …. Kind of assay: flow cytometry blocking assay: biotin-labelled human CD200 binding to CHOK1/hCD200R1a cells; y axis Inhibition %. As to the method:
as §1

The target of assay [7] is T1, CD200R1a on PathHunter Jurkat CD200R1a …. As to the kind of experiment: cell-based or functional assay. The source holds these as a separate data set.
The target in assay [8] is T2, human CD200R1 isoform a on CHOK1 cells …. As to the kind of experiment: flow cytometry blocking assay: biotin-labelled human CD200 binding to CHOK1/hCD200R1a cells; y axis Inhibition %. As to the method:
as §1
This is another data set of the same source.

Assay [9] shares this target. Kind of assay: flow cytometry, CHOK1/hCD200R1a cells (FITC-Mean); table beside the curves. As to the method: as §2, §3
This is another data set of the same source.

The target is the same in assay [10]. Kind of assay: flow cytometry, CHOK1/hCD200R1a cells (FITC-Mean); table beside the curves, head without unit, x axis Log [Ab] (nM). The source holds these as a separate data set.
The target in assay [11] is T1, CD200R1a on PathHunter Jurkat CD200R1a …. Kind of assay: cell-based or functional assay. The source holds these as a separate data set.
For assay [12], the target named is T2, human CD200R1 isoform a on CHOK1 cells …. Kind of assay: flow cytometry blocking assay: antibody titrated against biotin-labelled human CD200 binding to CHOK1/hCD200R1a cells; head prints EC50 without unit, x axis Log [Ab] (nM), y axis Inhibition %. As to the method: as §1
This is another data set of the same source.

Assay [13] addresses T3, Cynomolgus macaques CD200R1 isoform a …. As to the kind of experiment: flow cytometry, CHOK1/cynoCD200R1a cells (APC-A Mean); table beside the curves.
For assay [14], the target named is B5. Kind of assay: BLI (Octet), Fc-tagged hCD200 captured on anti-human Fc sensor, soluble CD200R1a as analyte, 1:1 fit. For orientation: BLI is a label-free optical method that tracks binding on a fibre tip over time.
Assay [15] has as its target T4, human CD200R1a protein (soluble recombinant) (human, UniProt Q8TD46 29-265).
T4 construct: Soluble protein used in BLI; also called human CD200R1 isoform a; not shown: His tag implied by capture on anti-Penta-HIS biosensors
T4 sequence: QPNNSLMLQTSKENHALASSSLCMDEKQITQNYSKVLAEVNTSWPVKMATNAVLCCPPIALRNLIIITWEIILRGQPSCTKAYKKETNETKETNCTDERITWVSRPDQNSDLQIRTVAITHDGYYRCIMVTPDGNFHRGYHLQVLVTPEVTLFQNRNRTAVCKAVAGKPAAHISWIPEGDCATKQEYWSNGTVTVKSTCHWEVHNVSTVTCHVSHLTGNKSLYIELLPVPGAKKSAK
The description is as above.

B1: PR007630 (antibody, human IgG1, kappa, V domains shown)
VH: QVQLVESGGGVVQPGRSLRLSCAASGFTFSSYGFHWVRQAPGKGLEWLGIIWSDASNKYYADSVKGRFTISRDNSKNTLYLQMNSLRAEDTAVYYCARDRIVGEGFDYWGQGTLVTVSS
VL: DIVMTQSPLSLPVTPGEPASISCRSSQSLLHRSGYNYLDWYLQKPGQSPQLLIYLGSYRASGVPDRFSGSGSGTDFTLKISRVEAEDVGVYYCMQGLQTMYTFGQGTKLEIKR
notes: PTM variant of PR006839 (human IgG1)
In general, EC50 refers to the midpoint of the concentration-response curve. Lower therefore signals an effect from little substance. Consider B1, for which, in assay [1], the “IC50 of the inhibition of CD200-induced PathHunter Jurkat CD200R1a luminescence (CHOK1/hCD200 cells as CD200 source)” value is 0.46 nM. Moreover, the EC50 in assay [2] is 0.359 nM; in assay [4], 0.313 nM; in assay [5], 4.69 nM. The “MFI(Max)” value in [3] worked out at 18900. In addition, the “MFI (MAX)” value in assay [5] stood at 58600. In addition, the “Blocking(Max)” value in assay [6] turned out to be 99.9%.

B2: PR006895 (antibody, human IgG1, kappa)
heavy: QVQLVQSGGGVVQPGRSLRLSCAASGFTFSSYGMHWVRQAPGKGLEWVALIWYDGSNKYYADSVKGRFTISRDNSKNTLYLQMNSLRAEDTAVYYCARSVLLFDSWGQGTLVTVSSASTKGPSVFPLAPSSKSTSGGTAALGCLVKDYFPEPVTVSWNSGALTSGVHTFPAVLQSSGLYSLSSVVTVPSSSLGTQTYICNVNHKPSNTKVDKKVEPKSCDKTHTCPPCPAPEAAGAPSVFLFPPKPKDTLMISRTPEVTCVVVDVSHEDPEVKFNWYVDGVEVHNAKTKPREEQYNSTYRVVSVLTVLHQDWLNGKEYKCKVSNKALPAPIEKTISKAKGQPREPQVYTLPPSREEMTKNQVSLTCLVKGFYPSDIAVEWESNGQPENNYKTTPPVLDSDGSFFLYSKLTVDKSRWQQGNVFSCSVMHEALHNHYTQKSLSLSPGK
light: DIQMTQSPPSLSASVGDRVTITCRASQSISSYLNWFQQKAGKAPKLLISATSNLQSGVPSRFSGSGSGTDFTLTISSLQPEDLATYYCQQSYSSPYTFGQGTKVEIKRTVAAPSVFIFPPSDEQLKSGTASVVCLLNNFYPREAKVQWKVDNALQSGNSQESVTEQDSKDSTYSLSSTLTLSKADYEKHKVYACEVTHQGLSSPVTKSFNRGEC
notes: Fc variant of PR006480: human IgG1 with L234A, L235A, G237A (EU)
As for B2, the “IC50 of the inhibition of CD200-induced PathHunter Jurkat CD200R1a luminescence (CHOK1/hCD200 cells as CD200 source)” value worked out at 0.988 nM in assay [7] and 0.886 nM in assay [11]. For the same molecule, the “Blocking(Max)” value in assay [8] is 49.8%. In [9], the “MFI(Max)” value was 8410. In addition, the figures for the EC50 in assay [10], in assay [12] and in assay [13] were 0.172 nM, 0.339 nM and 20.5 nM, respectively. Moreover, the “MFI (MAX)” value in assay [13] came out at 33400.

B3: PR007442 (antibody, human IgG1, kappa)
heavy: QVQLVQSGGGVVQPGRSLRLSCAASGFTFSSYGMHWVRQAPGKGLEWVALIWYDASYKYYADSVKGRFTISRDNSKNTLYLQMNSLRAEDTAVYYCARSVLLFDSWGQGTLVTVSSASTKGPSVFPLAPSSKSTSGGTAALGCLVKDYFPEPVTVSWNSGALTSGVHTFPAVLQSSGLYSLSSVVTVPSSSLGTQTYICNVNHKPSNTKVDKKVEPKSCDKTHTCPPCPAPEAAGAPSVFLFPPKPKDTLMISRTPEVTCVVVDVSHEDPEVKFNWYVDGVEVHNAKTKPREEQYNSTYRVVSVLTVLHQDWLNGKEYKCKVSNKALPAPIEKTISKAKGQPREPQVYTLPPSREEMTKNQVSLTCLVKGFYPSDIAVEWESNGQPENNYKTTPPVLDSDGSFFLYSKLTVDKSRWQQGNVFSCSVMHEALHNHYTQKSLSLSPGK
light: DIQMTQSPPSLSASVGDRVTITCRASQSISSYLNWFQQKAGKAPKLLISATSNLQSGVPSRFSGSGSGTDFTLTISSLQPEDLATYYCQQTLSSPYTFGQGTKVEIKRTVAAPSVFIFPPSDEQLKSGTASVVCLLNNFYPREAKVQWKVDNALQSGNSQESVTEQDSKDSTYSLSSTLTLSKADYEKHKVYACEVTHQGLSSPVTKSFNRGEC
notes: PTM variant of PR006895 (human IgG1)
For the molecule B3, the “IC50 of the inhibition of CD200-induced PathHunter Jurkat CD200R1a luminescence (CHOK1/hCD200 cells as CD200 source)” value in assay [7] is 0.844 nM. Moreover, the “Blocking(Max)” value in [8] turned out to be 80%. In addition, the “MFI(Max)” value in assay [9] is 8850. Also, the EC50 in assay [10] turned out to be 0.108 nM; in assay [12], 0.19 nM; in [13], 6.86 nM. For the same molecule, the “MFI (MAX)” value in assay [13] was 50100.

B4: Cyno CD200R1a-His (receptor)
chain: EGAAQSNNSLMLQTSKENHTLASNSLCMDEKQITQNHSKVLAEVNISWPVQMARNAVLCCPPIEFRNLIVITWEIILRGQPSCTKTYRKDTNETKETNCTDERITWVSTPDQNSDLQIHPVAITHDGYYRCIMATPDGNFHRGYHLQVLVTPEVTLFESRNRTAVCKAVAGKPAAQISWIPAGDCAPTEQEYWGNGTVTVKSTCHWEGHNVSTVTCHVSHLTGNKSLYIELLPVPGAKKSAK
notes: Soluble protein used in BLI; also called Cynomolgus macaques CD200R1a recombinant protein; not shown: His tag
As a reminder, the Kd is the equilibrium constant for the complex coming apart. In general, koff refers to the rate constant with which the complex falls apart. One may read the kon as the second-order rate constant of association. On to B4, for which, in [14], the Kd was 197 nM, the koff is 0.0316 s⁻¹ and the kon was 161000 M⁻¹ s⁻¹.

On to B5, for which, in assay [15], the Kd was 77.1 nM, the koff was 0.0177 s⁻¹ and the kon is 230000 M⁻¹ s⁻¹.
